In patent US5492821A, “Stabilized polyacrylic saccharide protein conjugates” (Cargill, Inc., priority 1991, dated 1996):

B1: BPN'-subtilisin (native) (Bacillus amyloliquefaciens) (protein)
chain: AQSVPYGVSQIKAPALHSQGYTGSNVKVAVIDSGIDSSHPDLKVAGGASMVPSETNPFQDNNSHGTHVAGTVAALNNSIGVLGVAPSASLYAVKVLGADGSGQYSWIINGIEWAIANNMDVINMSLGGPSGSAALKAAVDKAVASGVVVVAAAGNEGTSGSSSTVGYPGKYPSVIAVGAVDSSNQRASFSSVGPELDVMAPGVSIQSTLPGNKYGAYNGTSMASPHVAGAAALILSKHPNWTNTQVRSSLENTTTKLGDSFYYGKGLINVQAAAQ
B2: Carlsberg-subtilisin (native) (Bacillus licheniformis) (protein)
chain: AQTVPYGIPLIKADKVQAQGFKGANVKVAVLDTGIQASHPDLNVVGGASFVAGEAYNTDGNGHGTHVAGTVAALDNTTGVLGVAPSVSLYAVKVLNSSGSGSYSGIVSGIEWATTNGMDVINMSLGGASGSTAMKQAVDNAYAKGVVVVAAAGNSGSSGNTNTIGYPAKYDSVIAVGAVDSNSNRASFSSVGAELEVMAPGAGVYSTYPTNTYATLNGTSMASPHVAGAAALILSKHPNLSASQVRNRLSSTATYLGSSFYYGKGLINVEAAAQ

What was measured:
[1] = substrate: C[C@H](NC(=O)CCC(=O)O)C(=O)N[C@@H](C)C(=O)N1CCC[C@H]1C(=O)N[C@@H](Cc1ccccc1)C(=O)Nc1ccc([N+](=O)[O-])cc1; assay: Km and kcat of enzyme, Table 1; format: biochemical; details: other: 0.05M sodium phosphate buffer at pH 8 containing 10% methanol
Protocol: (§1) The yield of the active enzyme was determined by comparison of the relative activity of the native trypsin and the trypsin-polymer conjugate for N-succinyl-Ala-Ala-Pro-Phe p-nitroanilide as the substrate in 0.05M sodium phosphate buffer at pH 8 containing 10% methanol.
The procedure of EXAMPLE 8 (a) (i) was repeated in every essential detail except that BPN'-subtilisin was used instead of trypsin.

[2] = substrate: C[C@H](NC(=O)CCC(=O)O)C(=O)N[C@@H](C)C(=O)N1CCC[C@H]1C(=O)N[C@@H](Cc1ccccc1)C(=O)Nc1ccc([N+](=O)[O-])cc1; assay: Km and kcat of enzyme, Table 1; format: biochemical; details: other: 0.05M sodium phosphate buffer at pH 8 containing 10% methanol; remark: listed apart in the source
Protocol: as §1
The procedure of EXAMPLE 8 (a) (i) was repeated in every essential detail except that Carlsberg-subtilisin was used instead of trypsin.

Protein | Km [1] | kcat [1] | Km [2] | kcat [2]
B1 | 240 µM | 83 s⁻¹ | – | –
B2 | – | – | 251 µM | 420 s⁻¹
